Measurements reported in PMC9299485, “4‐Iodopyrimidine Labeling Reveals Nuclear Translocation and Nuclease Activity for Both MIF and MIF2” (Chemistry (Weinheim an Der Bergstrasse, Germany), 2021).

Tested on: human genomic DNA
Assay: Nuclease assay of MIF and MIF2 on human genomic DNA (agarose gel)
Assay type: biochemical
Settings: for concentration giving complete hgDNA cleavage: within 2 h, 37°C, Mg2+
Method: 7. Nuclease activity of MIF and MIF2.
Human genomic DNA was obtained from RPE-1 cells by DNA extraction following the protocol described in literature.[10] The nuclease assays were conducted by following the procedure described previously.[8] hgDNA (200 ng/reaction) was incubated with MIF or MIF2 in final concentration of 0.62 -20 µM as indicated in 10Mm Tris-HCl buffer (pH 7.0) containing 10mM MgCl2 (B and C) or specific buffer as indicated at 37°C for two hours. The reaction was terminated with loading buffer containing 10mM EDTA and incubation on ice. The human genomic DNA samples were immediately separated on a 1% agarose gel containing SYBR Safe (ThermoFisher) in 0.5 X TBE buffer with initial switch time of 1.5 s and a final switch time of 3.5 s for 12 hours at 6 V/cm. DNA was further detected by chemiluminescence.
Figure S7. hgDNA cleavage activity of MIF and MIF2. (A) The MIF2 nuclease activity is Mg 2+- […]
BITC is a covalent inhibitor that can form covalent bond with the N-terminal proline.[11] (C) […]
(1 picture or pasted object on this page, not shown here)

B1: MIF: recombinant human macrophage migration inhibitory factor, tested as nuclease on hgDNA (protein, UniProt P14174 2-115, looked up)
Macrophage migration …: PMFIVNTNVPRASVPDGFLSELTQQLAQATGKPPQYIAVHVVPDQLMAFGGSSEPCALCSLHSIGKIGGAQNRSYSKLLCGLLAERLRISPDRVYINYYDMNAANVGWNNSTFA
With B1 the “concentration giving complete hgDNA cleavage” value was 1.25 µM.

B2: MIF2: recombinant human MIF2 (D-dopachrome tautomerase), tested as nuclease on hgDNA (protein, UniProt P30046 2-118, looked up)
D-dopachrome decarboxylase: PFLELDTNLPANRVPAGLEKRLCAAAASILGKPADRVNVTVRPGLAMALSGSTEPCAQLSISSIGVVGTAEDNRSHSAHFFEFLTKELALGQDRILIRFFPLESWQIGKIGTVMTFL
In the case of B2, the “nuclease activity relative to MIF” value (lower activity than MIF) is reported as 10 fold and the “concentration giving complete hgDNA cleavage” value is reported as “above 10 μM”.
